Where two headings read alike, the source gives them in different places.
How the values were obtained:
[1] = biological target: wild type TSHR expressed in CHO cells (human) (UniProt P16473); test: cell-based or functional assay
[2] = biological target: wild type TSHR (human TSH receptor) expressed in CHO cells (human) (UniProt P16473); test: cell-based or functional assay

Substance: TSH (ligand)
- Cyclic AMP produced (pmol/mL), TSH 0.3 ng/mL, Experiment 2 [1]: 35.7 pmol/mL
- Cyclic AMP produced (pmol/mL), TSH 1 ng/mL [1]: 45.6 pmol/mL
- Cyclic AMP produced (pmol/mL), TSH 1 ng/mL, Experiment 1 [1]: 15.9 pmol/mL
- Cyclic AMP produced (pmol/mL), TSH 1 ng/mL, Experiment 2 [1]: 72 pmol/mL
- Cyclic AMP produced (pmol/mL), TSH 3 ng/mL [1]: 77.9 pmol/mL
- Cyclic AMP produced (pmol/mL), TSH 3 ng/mL, Experiment 1 [1]: 47.6 pmol/mL
- Cyclic AMP produced (pmol/mL), TSH 3 ng/mL, Experiment 2 [1]: 79.2 pmol/mL
- Cyclic AMP produced, TSH 0.01 ng/mL, wild type TSHR [1]: 2.28 pmol/mL
- Cyclic AMP produced, TSH 0.03 ng/mL, wild type TSHR [1]: 3.77 pmol/mL
- Cyclic AMP produced, TSH 0.1 ng/mL, wild type TSHR [1]: 9.55 pmol/mL
- Cyclic AMP produced, TSH 0.3 ng/mL, wild type TSHR [1]: 28.8 pmol/mL
- Cyclic AMP produced, TSH 1 ng/mL, wild type TSHR [1]: 76.8 pmol/mL
- Cyclic AMP produced, TSH 3 ng/mL, wild type TSHR [1]: 93.1 pmol/mL
- Cyclic AMP produced, wild type TSHR, TSH 0.01 ng/mL (Experiment 1) [1]: 1.69 pmol/mL
- Cyclic AMP produced, wild type TSHR, TSH 0.01 ng/mL (Experiment 2) [1]: 4.16 pmol/mL
- Cyclic AMP produced, wild type TSHR, TSH 0.03 ng/mL (Experiment 1) [1]: 2.46 pmol/mL
- Cyclic AMP produced, wild type TSHR, TSH 0.03 ng/mL (Experiment 2) [1]: 4.92 pmol/mL
- Cyclic AMP produced, wild type TSHR, TSH 0.1 ng/mL (Experiment 1) [1]: 6.18 pmol/mL
- Cyclic AMP produced, wild type TSHR, TSH 0.1 ng/mL (Experiment 2) [1]: 11.2 pmol/mL
- Cyclic AMP produced, wild type TSHR, TSH 0.3 ng/mL (Experiment 1) [1]: 18.9 pmol/mL
- Cyclic AMP produced, wild type TSHR, TSH 0.3 ng/mL (Experiment 2) [1]: 31.4 pmol/mL
- Cyclic AMP produced, wild type TSHR, TSH 1 ng/mL (Experiment 1) [1]: 45.2 pmol/mL
- Cyclic AMP produced, wild type TSHR, TSH 1 ng/mL (Experiment 2) [1]: 74.3 pmol/mL
- Cyclic AMP produced, wild type TSHR, TSH 3 ng/mL (Experiment 1) [1]: 61.6 pmol/mL
- Cyclic AMP produced, wild type TSHR, TSH 3 ng/mL (Experiment 2) [1]: 96.4 pmol/mL
- Cyclic AMP produced; TSH 3 ng/mL [1]: 85 pmol/mL
- Cyclic AMP produced; TSH 3 ng/mL alone [1]: 83.8 pmol/mL
- Cyclic AMP produced; TSH 3 ng/mL; Experiment 1 [1]: 68.8 pmol/mL
- Cyclic AMP produced; TSH 3 ng/mL; Experiment 2 [1]: 97.9 pmol/mL
- Cyclic AMP produced; TSH (2) [1]: 93.5 pmol/mL
- Cyclic AMP produced; TSH (2) 3 ng/mL, run at the end of assay [1]: 83.6 pmol/mL
- Cyclic AMP produced; TSH (2); Experiment 1 [1]: 74.3 pmol/mL
- Cyclic AMP produced; TSH (2); Experiment 2 [1]: 102 pmol/mL
- Experiment 1: % inhibition of TSH stimulation; TSH (2), run at the end of assay [1]: 0%
- Experiment 1; % inhibition of TSH stimulation; TSH (2) 3 ng/mL, run at the end of assay [1]: 5%
- Experiment 1; cyclic AMP produced; TSH 3 ng/mL [1]: 78 pmol/mL
- Experiment 1; cyclic AMP produced; TSH (2) 3 ng/mL, run at the end of assay [1]: 74.3 pmol/mL
- Experiment 2: % inhibition of TSH stimulation; TSH (2), run at the end of assay [1]: 0%
- Experiment 2; % inhibition of TSH stimulation; TSH (2) 3 ng/mL, run at the end of assay [1]: 3%
- Experiment 2; cyclic AMP produced; TSH 3 ng/mL [1]: 95.8 pmol/mL
- Experiment 2; cyclic AMP produced; TSH (2) 3 ng/mL, run at the end of assay [1]: 92.9 pmol/mL
- % inhibition of TSH stimulation; TSH (2) ([1]; record 2): 0%
- % inhibition of TSH stimulation; TSH (2); Experiment 1 ([1]; record 2): 0%
- % inhibition of TSH stimulation; TSH (2); Experiment 2 ([1]; record 2): 0%
- Cyclic AMP produced; TSH 3 ng/mL ([1]; record 2): 76.2 pmol/mL
- Cyclic AMP produced; TSH 3 ng/mL; Experiment 1 ([1]; record 2): 154 pmol/mL
- Cyclic AMP produced; TSH 3 ng/mL; Experiment 2 ([1]; record 2): 59.9 pmol/mL
- Cyclic AMP produced; TSH (2) ([1]; record 2): 93.8 pmol/mL
- Cyclic AMP produced; TSH (2); Experiment 1 ([1]; record 2): 160 pmol/mL
- Cyclic AMP produced; TSH (2); Experiment 2 ([1]; record 2): 61.5 pmol/mL
- % inhibition of TSH stimulation; TSH (2), run at the end of assay [2]: 0%
- % inhibition of TSH stimulation; TSH (2), run at the end of assay; Experiment 1 [2]: 8%
- % inhibition of TSH stimulation; TSH (2), run at the end of assay; Experiment 2 [2]: 0%
- Cyclic AMP produced (pmol/mL), TSH 0.01 ng/mL [2]: 2.45 pmol/mL
- Cyclic AMP produced (pmol/mL), TSH 0.01 ng/mL, Experiment 1 [2]: 1.86 pmol/mL
- Cyclic AMP produced (pmol/mL), TSH 0.01 ng/mL, Experiment 2 [2]: 2.49 pmol/mL
- Cyclic AMP produced (pmol/mL), TSH 0.03 ng/mL [2]: 4.78 pmol/mL
- Cyclic AMP produced (pmol/mL), TSH 0.03 ng/mL, Experiment 1 [2]: 3.32 pmol/mL
- Cyclic AMP produced (pmol/mL), TSH 0.03 ng/mL, Experiment 2 [2]: 5.12 pmol/mL
- Cyclic AMP produced (pmol/mL), TSH 0.1 ng/mL [2]: 16.2 pmol/mL
- Cyclic AMP produced (pmol/mL), TSH 0.1 ng/mL, Experiment 1 [2]: 14.6 pmol/mL
- Cyclic AMP produced (pmol/mL), TSH 0.1 ng/mL, Experiment 2 [2]: 13.7 pmol/mL
- Cyclic AMP produced (pmol/mL), TSH 0.3 ng/mL [2]: 44.3 pmol/mL
- Cyclic AMP produced (pmol/mL), TSH 0.3 ng/mL, Experiment 1 [2]: 48.5 pmol/mL
- Cyclic AMP produced (pmol/mL), TSH 0.3 ng/mL, Experiment 2 [2]: 39.9 pmol/mL
- Cyclic AMP produced (pmol/mL), TSH 1 ng/mL [2]: 77.2 pmol/mL
- Cyclic AMP produced (pmol/mL), TSH 1 ng/mL, Experiment 1 [2]: 91.2 pmol/mL
- Cyclic AMP produced (pmol/mL), TSH 1 ng/mL, Experiment 2 [2]: 74.3 pmol/mL
- Cyclic AMP produced (pmol/mL), TSH 3 ng/mL [2]: 95.5 pmol/mL
- Cyclic AMP produced (pmol/mL), TSH 3 ng/mL, Experiment 1 [2]: 119 pmol/mL
- Cyclic AMP produced (pmol/mL), TSH 3 ng/mL, Experiment 2 [2]: 88.3 pmol/mL
- Cyclic AMP produced (pmol/mL), wild type TSHR, TSH 0.01 ng/mL [2]: 2.48 pmol/mL
- Cyclic AMP produced (pmol/mL), wild type TSHR, TSH 0.01 ng/mL, Experiment 1 [2]: 2.6 pmol/mL
- Cyclic AMP produced (pmol/mL), wild type TSHR, TSH 0.01 ng/mL, Experiment 2 [2]: 3.89 pmol/mL
- Cyclic AMP produced (pmol/mL), wild type TSHR, TSH 0.03 ng/mL [2]: 4.62 pmol/mL
- Cyclic AMP produced (pmol/mL), wild type TSHR, TSH 0.03 ng/mL, Experiment 1 [2]: 4.27 pmol/mL
- Cyclic AMP produced (pmol/mL), wild type TSHR, TSH 0.03 ng/mL, Experiment 2 [2]: 5.52 pmol/mL
- Cyclic AMP produced (pmol/mL), wild type TSHR, TSH 0.1 ng/mL [2]: 17.6 pmol/mL
- Cyclic AMP produced (pmol/mL), wild type TSHR, TSH 0.1 ng/mL, Experiment 1 [2]: 10.9 pmol/mL
- Cyclic AMP produced (pmol/mL), wild type TSHR, TSH 0.1 ng/mL, Experiment 2 [2]: 13.3 pmol/mL
- Cyclic AMP produced (pmol/mL), wild type TSHR, TSH 0.3 ng/mL [2]: 40.4 pmol/mL
- Cyclic AMP produced (pmol/mL), wild type TSHR, TSH 0.3 ng/mL, Experiment 1 [2]: 32.3 pmol/mL
- Cyclic AMP produced (pmol/mL), wild type TSHR, TSH 0.3 ng/mL, Experiment 2 [2]: 35.4 pmol/mL
- Cyclic AMP produced (pmol/mL), wild type TSHR, TSH 1 ng/mL [2]: 92.5 pmol/mL
- Cyclic AMP produced (pmol/mL), wild type TSHR, TSH 1 ng/mL, Experiment 1 [2]: 85 pmol/mL
- Cyclic AMP produced (pmol/mL), wild type TSHR, TSH 1 ng/mL, Experiment 2 [2]: 82.1 pmol/mL
- Cyclic AMP produced (pmol/mL), wild type TSHR, TSH 3 ng/mL [2]: 104 pmol/mL
- Cyclic AMP produced (pmol/mL), wild type TSHR, TSH 3 ng/mL, Experiment 1 [2]: 124 pmol/mL
- Cyclic AMP produced (pmol/mL), wild type TSHR, TSH 3 ng/mL, Experiment 2 [2]: 91.7 pmol/mL
- Cyclic AMP produced, wild type TSHR, TSH 0.01 ng/mL [2]: 1.41 pmol/mL
- Cyclic AMP produced, wild type TSHR, TSH 0.03 ng/mL [2]: 1.99 pmol/mL
- Cyclic AMP produced, wild type TSHR, TSH 0.1 ng/mL [2]: 5.54 pmol/mL
- Cyclic AMP produced, wild type TSHR, TSH 0.3 ng/mL [2]: 16.3 pmol/mL
- Cyclic AMP produced, wild type TSHR, TSH 1 ng/mL [2]: 44.2 pmol/mL
- Cyclic AMP produced, wild type TSHR, TSH 3 ng/mL [2]: 53.9 pmol/mL

From patent US20110300138A1 (published 2011)
